Results on five molecules are retold here after patent publication US20240327530A1 (ICHNOS SCIENCES, published 2024).

In one assay the target is T1, gg-hs-hs IL-1RAP.
T1 construct: chicken/human IL-1RAP chimera; also called IL-1RAP-ECD(ggD1(S139-P246)-hsD2(V132-V233)-hsD3(V234-E359))-Avi-His; gg-hs-hs-IL-1RAP-ECD-avi-his
T1 single chain: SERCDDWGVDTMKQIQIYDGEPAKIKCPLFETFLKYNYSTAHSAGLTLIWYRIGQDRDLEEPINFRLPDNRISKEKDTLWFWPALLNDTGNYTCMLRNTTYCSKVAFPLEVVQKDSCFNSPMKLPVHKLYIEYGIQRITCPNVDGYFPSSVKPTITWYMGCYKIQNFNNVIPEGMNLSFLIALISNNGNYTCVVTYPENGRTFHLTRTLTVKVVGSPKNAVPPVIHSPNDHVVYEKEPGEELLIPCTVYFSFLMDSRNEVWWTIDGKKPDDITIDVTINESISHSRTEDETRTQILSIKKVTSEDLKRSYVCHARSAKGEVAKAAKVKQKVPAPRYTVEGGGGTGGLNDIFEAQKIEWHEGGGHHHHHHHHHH
In words: SPR, IgG1 LALA captured on anti-human IgG Fc CM5 chip, chimera injected at 50 nM. How it is done:
Human-chicken IL-1RAP chimeras were injected over immobilized anti-IL-1RAP IgG1 LALA at 50 nM in HBS-EP+ buffer followed by a dissociation in HBS-EP+ buffer. “hs” stands for a human domain and “gg” stands for a chicken domain. Human-chicken chimeras are then described by their respective human or chicken domains in successive order, e.g. hs-gg-gg IL-1RAP stands for IL-1RAP with human domain 1, chicken domain 2 and chicken domain 3. Plots show data expressed as number of resonance units (abbreviated RU; Y axis) vs. time (X axis).
Domain of IL-1RAP targeted by IgG1 LALA clones was identified by SPR binding assay. Around 150 RU of IgG1 LALA was immobilized on the fc2 of a Series S CM5 sensor chip previously coated with anti-human IgG Fc (BIACORE™, GE […]®, catalog no. BR100839) using a commercial amine coupling kit (BIACORE™, GE […]®, catalog no. BR100050). Human IL-1RAP-avi-his, chicken IL-1RAP-avi-his, chimeric protein comprising chicken domain 1 of IL-RAP fused to human domain 2 and 3 of IL-1RAP (gg-hs-hs-IL-1RAP-ECD-avi-his) and chimeric protein comprising chicken domain 1 and 2 of IL-1RAP fused to human domain 3 of IL-1RAP (gg-gg-hs-IL-1RAP-avi-his) were injected individually at 50 nM in HBS-EP+ for 3 min over fc1 and fc2 (fc1 being used as reference), followed by dissociation in HBS-EP+ buffer for 5 min. […]
On the technique in general: Surface plasmon resonance follows binding to a sensor surface in real time, without labels.

Assay [1] concerns the target T2, Recombinant cynomolgus monkey IL-1RAP-ECD(S21-E359)-avi-his protein (cynomolgus monkey, UniProt P59822 21-359 (rhesus entry)).
T2 construct: also called cyno IL-1RAP-ECD-Avi-His; recombinant cynomolgus monkey IL-1RAP-avi-his protein
T2 sequence: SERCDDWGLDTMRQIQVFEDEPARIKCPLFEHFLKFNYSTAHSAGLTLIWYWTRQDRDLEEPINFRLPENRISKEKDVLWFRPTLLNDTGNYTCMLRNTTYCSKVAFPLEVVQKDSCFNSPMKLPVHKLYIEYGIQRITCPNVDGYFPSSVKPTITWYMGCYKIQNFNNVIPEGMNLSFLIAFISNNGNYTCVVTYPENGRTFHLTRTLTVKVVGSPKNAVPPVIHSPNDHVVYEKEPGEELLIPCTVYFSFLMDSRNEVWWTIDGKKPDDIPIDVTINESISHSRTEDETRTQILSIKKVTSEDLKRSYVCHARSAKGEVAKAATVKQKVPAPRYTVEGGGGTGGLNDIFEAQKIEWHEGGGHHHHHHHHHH
In words: SPR, biotinylated cyno IL-1RAP-avi-his captured, Fab as analyte, 1:1 fit. How it is done: (§1) Surface plasmon resonance (SPR) was used to measure the binding affinities of the Fab fragments for human, cynomolgus monkey and/or mouse IL-1RAP. Affinities were measured on a BIACORE™ T200 instrument (BIACORE™, GE […]®) at 25° C. and analyzed with the BIACORE™ T200 Evaluation Software (v3.1). Measurements were performed on Series S CM5 sensor chips (BIACORE™ T200, BIACORE™, GE […]®, catalog no. BR100530) coupled with anti-human IgG Fc (BIACORE™, GE […]®, catalog no. BR100839) using a commercial amine coupling kit (BIACORE™, GE […]®, catalog no. BR100050) or on Series S BiotinCAPture chips (BIACORE™, GE […]®, catalog no. 28920234). SPR measurements were performed with commercially available recombinant human IL-1RAP Fc fusion protein (Acrobiosystems, catalog no. ILP-H5256) and recombinant mouse IL-1RAP Fc fusion protein (Sino Biologicals, catalog no. 52657-M02H) or with biotinylated recombinant cynomolgus monkey IL-1RAP-avi-his protein produced in-house (SEQ ID NO. 2).
(§2) The affinities to human, cynomolgus monkey and mouse IL-1RAP were assessed by immobilizing IL-1RAP and using Fab fragments as analyte. Around 100 RU of human or mouse IL-1RAP Fc fusion protein were captured on fc2 of a Series S CM5 sensor chip coupled with anti-human IgG Fc and around 150 RU of biotinylated cynomolgus monkey IL-1RAP protein were captured on fc2 of a Series S BiotinCAPture chip. Fab fragments were injected in single cycle kinetic at different concentrations ranging from 7.8 to 500 nM, in HBS-EP+ buffer (BIACORE™, GE […]®, catalog no. BR100669) at a flow rate of 30 μl/min for 3 min on fc1 and fc2 (fc1 being used as reference). Dissociation was monitored for 5 min. After each cycle, the surface was regenerated with 60 μl of regeneration solution provided with anti-human IgG Fc capture kit (BIACORE™, GE […]®, catalog no. BR100839) or BiotinCAPture kit (BIACORE™, GE […]®, catalog no. 28920234) respectively. Experimental data were processed using the 1:1 Langmuir kinetic fitting model. Measurements included zero-concentration samples for referencing. Chi², U- and residual values were used to evaluate the quality of a fit between the experimental data and individual binding models.

In assay [2] the target is T3, Recombinant mouse IL-1RAP Fc fusion protein (Sino Biologicals, catalog no. 52657-M02H) (mouse, UniProt Q61730 21-350).
T3 construct: Bought; not shown: Fc part of the bought fusion protein
T3 sequence: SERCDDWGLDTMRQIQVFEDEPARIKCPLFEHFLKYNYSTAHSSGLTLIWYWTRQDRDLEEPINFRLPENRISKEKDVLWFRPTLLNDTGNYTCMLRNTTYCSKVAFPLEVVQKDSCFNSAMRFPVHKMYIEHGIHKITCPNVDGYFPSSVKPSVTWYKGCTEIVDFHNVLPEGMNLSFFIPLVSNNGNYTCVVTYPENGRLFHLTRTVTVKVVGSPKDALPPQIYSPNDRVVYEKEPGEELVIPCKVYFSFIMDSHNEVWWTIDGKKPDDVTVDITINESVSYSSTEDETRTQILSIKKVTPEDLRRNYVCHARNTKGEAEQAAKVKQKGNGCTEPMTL
Briefly: SPR, mouse IL-1RAP-Fc captured, Fab as analyte, 1:1 fit. How it is done:
as §1
(§3) The affinities to human, cynomolgus monkey and mouse IL-1RAP were assessed by immobilizing IL-1RAP and using Fab fragments as analyte. […] Dissociation was monitored for 5 min. […]

The target of assay [3] is T2, Recombinant cynomolgus monkey …. In words: SPR, Fab as analyte. How it is done:
as §1, §3

For assay [4], the target named is T4, Recombinant human IL-1RAP Fc fusion protein (Acrobiosystems, catalog no. ILP-H5256) (human, UniProt Q9NPH3 21-359, limits assumed).
T4 construct: Bought; not shown: Fc part of the bought fusion protein
T4 sequence: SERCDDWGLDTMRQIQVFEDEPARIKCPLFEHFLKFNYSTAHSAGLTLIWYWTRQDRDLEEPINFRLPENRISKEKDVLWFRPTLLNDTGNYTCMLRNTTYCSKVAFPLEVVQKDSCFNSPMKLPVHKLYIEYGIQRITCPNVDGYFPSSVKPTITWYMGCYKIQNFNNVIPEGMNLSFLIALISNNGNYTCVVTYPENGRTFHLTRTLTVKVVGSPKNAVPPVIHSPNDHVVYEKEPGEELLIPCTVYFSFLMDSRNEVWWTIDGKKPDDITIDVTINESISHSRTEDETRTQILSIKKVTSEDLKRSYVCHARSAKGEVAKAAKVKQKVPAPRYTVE
In words: SPR, human IL-1RAP-Fc captured, Fab as analyte, 1:1 fit. The procedure: as §1, §2

Assay [5] deals with T2, Recombinant cynomolgus monkey …. Briefly: SPR, biotinylated cyno IL-1RAP-avi-his captured, Fab as analyte. The procedure:
as §1, §3

The target in assay [6] is T3, Recombinant mouse IL-1RAP Fc fusion …. In words: SPR, mouse IL-1RAP-Fc captured, Fab as analyte. How it is done:
as §1, §2

Broadly, the Kd is the free concentration of one partner at which half of the binding sites on the other are occupied at equilibrium, for simple one-to-one binding.

B1: anti-IL-1RAP-C8 IgG1 LALA (antibody, V domains shown)
VH: QVQLVQSGAEVKKPGSSVKVSCKASGGQFSEYAIQWVRQAPGQGLEWMGYIIPLHGQVDYAQKFQGRVTITADESTSTAYMELSSLRSEDTAVYYCARGQTLYDSGRQFDIWGQGTLVTVSS
VL: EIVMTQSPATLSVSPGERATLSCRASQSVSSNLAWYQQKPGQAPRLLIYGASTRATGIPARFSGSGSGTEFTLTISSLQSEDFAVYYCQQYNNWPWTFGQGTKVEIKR
notes: Human IgG1 with L234A/L235A (EU)
Regarding B1, the binding result in the assay with gg-hs-hs IL-1RAP is reported as “binds”.

B2: anti-IL-1RAP-C3 IgG1 LALA (antibody, V domains shown)
VH: EVQLLESGGGLVQPGGSLRLSCAASGFTFRDYAMGWVRQAPGKGLEWVSAISYDGEGTLYADSVKGRFTISRDNSKNTLYLQMNSLRAEDTAVYYCARFRYYTAFDYWGQGTLVTVSS
VL: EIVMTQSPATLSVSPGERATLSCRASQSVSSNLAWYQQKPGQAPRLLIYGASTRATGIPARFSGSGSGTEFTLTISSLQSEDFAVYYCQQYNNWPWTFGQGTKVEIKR
notes: as for B1
On to B2, for which the binding result with gg-hs-hs IL-1RAP is given as “binds”.

B3: Anti-IL-1RAP-UCP02-C3-Fab (Fab, V domains shown)
VH: EVQLLESGGGLVQPGGSLRLSCAASGFTFRDYAMGWVRQAPGKGLEWVSAISYDGEGTLYADSVKGRFTISRDNSKNTLYLQMNSLRAEDTAVYYCARFRYYTAFDYWGQGTLVTVSS
VL: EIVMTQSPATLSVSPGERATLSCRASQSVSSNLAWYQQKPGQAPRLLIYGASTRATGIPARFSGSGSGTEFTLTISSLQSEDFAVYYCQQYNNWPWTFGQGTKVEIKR
notes: also called anti-IL-1RAP-C3; anti-IL-1RAP-C3 Fab
On to B3, for which the Kd in assay [1] came to 110 nM; in assay [2], 0.63 nM; in assay [4] it was 2.8 nM. In addition, the “fold lower affinity than to human IL-1RAP” value in assay [3] is roughly 40 fold.

B4: Anti-IL-1RAP-UCP04-C1-Fab (Fab, V domains shown)
VH: EVQLLESGGGLVQPGGSLRLSCAASGFTFSAYTMSWVRQAPGKGLEWVSAISYEGDGTLYADSVKGRFTISRDNSKNTLYLQMNSLRAEDTAVYYCARSLYWSGFDYWGQGTLVTVSS
VL: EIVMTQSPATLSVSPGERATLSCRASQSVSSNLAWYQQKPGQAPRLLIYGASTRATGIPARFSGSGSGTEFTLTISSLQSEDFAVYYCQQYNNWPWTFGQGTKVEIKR
On to B4, for which the binding result in assay [5] was “no binding (tested: 7.8 to 500 nM Fab)”. Moreover, the results for the Kd in assay [2] and in assay [4] were 3.54 nM and 16 nM, respectively.

B5: Anti-IL-1RAP-UCP02-B5-Fab (Fab, V domains shown)
VH: QVQLVQSGAEVKKPGSSVKVSCKASGGYFSAYIISWVRQAPGQGLEWMGGIVPQYGYATYAQKFQGRVTITADESTSTAYMELSSLRSEDTAVYYCARGRSTTYYGFAYWGQGTLVTVSS
VL: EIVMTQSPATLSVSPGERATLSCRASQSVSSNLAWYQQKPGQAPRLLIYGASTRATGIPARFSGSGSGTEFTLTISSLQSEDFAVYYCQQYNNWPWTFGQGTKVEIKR
With B5, the binding result in assay [5] and in assay [6] was “no binding (tested: 7.8 to 500 nM Fab)” throughout. The Kd in assay [4] came out at 311 nM.
